Data from the supplement of paper PMC12764529.
± gives the half width of the 95% confidence interval.

Key:
[1] = folding stability dG unfold from trypsin proteolysis; higher = more stable
Outline: (§1)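 Bayesian fitting of sequencing counts gave K50 for each design. Unfolding free energy followed by setting this against a sequence-predicted unfolded-state K50 and a shared folded-state K50, either per protease or with trypsin and chymotrypsin combined. The designs, under 80 residues and lacking cysteine, were digested in a PA-tagged cDNA display format at 11 threefold-diluted protease concentrations and without protease, and only those with AlphaFold2 dimer inter-PAE above 15 were kept.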

[2] = folding stability dG unfold from chymotrypsin proteolysis; higher = more stable
Outline: as §1

[3] = folding stability dG unfold (combined trypsin and chymotrypsin); higher = more stable
Outline: as §1

| Sequence | folding stability dG unfold [1] [kJ/mol] | folding stability dG unfold [2] [kJ/mol] | folding stability dG unfold [3] [kJ/mol] |
| --- | --- | --- | --- |
| SAGGSAGLEGVAKAILDKLPPNRKIAAFTVNEEEAKTATFTTPDGNEINITAAGDKIASIDIIDAESAGGSA [r15_175_TrMRF] | -4.55 ± 2.13 | 1.8 ± 0.795 | 0.0937 ± 0.418 |
| SAGGSAGLRVRLADGSELSVSPIPDKLRVVVTLPNGARIPIDVEDGELVEIVRDPAVPADFYIEEISAGGSA [r15_709_JUSTAS] | 1.75 ± 0.586 | 5.24 ± 0.18 | 4.43 ± 0.418 |
| SAGGSAGLTLTFGDKEITLTPNPDTDTFTGTYPDGKPFTFKLTDDELYITYPDGTKEKIPLKDIKNSAGGSA [r15_448_TrMRF] | 6.6 ± 0.276 | 5.94 ± 0.711 | 6.46 ± 0.879 |
| SAGGSAGMELVPLPSPQLVPLTVETTPLPETGTTLVTETSPLGERTVTRVDPAGNVTTLSSTSTSTSAGGSA [r15_790_JUSTAS] | -1.63 ± 0.138 | -0.804 ± 0.502 | -0.944 ± 0.502 |
| SAGGSAGMMATKPVEVEVEIPPDDPEAAKERVEAEIKAAFPGPVEVETTSYDPEKGLLKVKVVIKKSAGGSA [r15_1024_JUSTAS] | -2.08 ± 1.72 | 0.403 ± 0.795 | 1.07 ± 1.38 |
| SAGGSAGMMTDVEVEEYPGTGLVRITIRTPDAVVSGEGRFLSPELLEITISFPGAGKRTNELIPVRSAGGSA [r15_837_JUSTAS] | 5.15 ± 0.301 | 5.28 ± 0.201 | 5.03 ± 0.368 |
| SAGGSAGMPDPPLEGLKEALREALAANPGEEVTLTVPRADGRTLTVRGTKDGGIEITLPDGTRIALSAGGSA [r15_73_JUSTAS] | 6.61 ± 0.151 | 6.34 ± 0.364 | 6.63 ± 0.301 |
| SAGGSAGMPKVRIPIEEDPENGNILIRVKMPNSGREHEYHIPGNLKEAKENFEDHFGFDITDVEIWSAGGSA [r15_101_TrROS] | 1.52 ± 0.962 | -4.12 ± 2.43 | -0.341 ± 1.59 |
| SAGGSAGMPSVTPVTVQMKGSREEAEAVAEELIEELRAKDPSVKVEAVEFSELPDGTYRVTITVTNSAGGSA [r15_718_JUSTAS] | 15.5 ± 0.502 | 14.1 ± 0.238 | 14.6 ± 0.226 |
| SAGGSAGMTPVSEAVVPGPNVTTLTTYRDPSSSALITPVTTTPPDGVPVTTTTLDLGSSTVTLSTTSAGGSA [r15_993_JUSTAS] | 4.46 ± 0.222 | 2.44 ± 0.879 | 4.06 ± 0.343 |
| SAGGSAGNPKPVVLEVEVVLDIPPENPDVLRAQAEAVARALAKPGLRVEVLDYDPDKAAFTIRITGSAGGSA [r15_563_TrMRF] | 7.16 ± 0.163 | 7.69 ± 0.268 | 7.92 ± 0.322 |
| SAGGSAGPALEIAKALTELYGAEEVTILDVHPDGYVHLHVRAVDYDDGEPVERELDVIFPIAPDDGSAGGSA [r15_646_TrMRF] | 0.685 ± 0.251 | 6.36 ± 0.155 | 4.92 ± 0.46 |
| SAGGSAGPDPKNKKIKVKVETFYLEDFGLKVEKIYIEGTGKPLLVFYFPDGSKLIINEDGTVKLIESAGGSA [r15_617_TrMRF] | 7.5 ± 1.46 | 13.9 ± 0.586 | 12.1 ± 0.962 |
| SAGGSAGPLERKVIVRTAPYTSPEEGEAYAEETKLAIASKLPESEKVTVEVTWDPETNTVTATIVSSAGGSA [r15_981_JUSTAS] | -2.05 ± 1.17 | 4.75 ± 0.385 | 3.02 ± 0.669 |
| SAGGSAGPMSVKEYEFEAVVPPGEEEAWVEEYIKKEFKSKIVKIEVKREKLPDGTYRVPVKITVKESAGGSA [r15_138_JUSTAS] | 1.81 ± 0.121 | 4.18 ± 0.502 | 3.24 ± 0.331 |
| SAGGSAGPSSKPIPLYVLFLEVTKPGGEKLPLVKLVKSPEEALKIAEEIASKGYEVKLVLAPASEISAGGSA [r15_906_TrMRF] | 11.5 ± 0.339 | 12.2 ± 0.293 | 12 ± 0.351 |
| SAGGSAGSGFEEEAAAAFAASAGAMTLTVVEREPDSYTVATVTRTPGTGAPTVTVTTLSPETLAAASAGGSA [r15_156_JUSTAS] | 3.78 ± 0.201 | 1.78 ± 0.544 | 2.93 ± 0.502 |
